Experimental data taken from patent publication US20260008857A1 (FLAGSHIP PIONEERING INNOVATIONS VI, published 2026).
Positions count from the first letter of the chain named.

T1: IL-4Rα on human primary cells (primary B cells, whole blood B and T cells, PBMCs) (human, UniProt P24394 26-825)
T1 sequence (looked up): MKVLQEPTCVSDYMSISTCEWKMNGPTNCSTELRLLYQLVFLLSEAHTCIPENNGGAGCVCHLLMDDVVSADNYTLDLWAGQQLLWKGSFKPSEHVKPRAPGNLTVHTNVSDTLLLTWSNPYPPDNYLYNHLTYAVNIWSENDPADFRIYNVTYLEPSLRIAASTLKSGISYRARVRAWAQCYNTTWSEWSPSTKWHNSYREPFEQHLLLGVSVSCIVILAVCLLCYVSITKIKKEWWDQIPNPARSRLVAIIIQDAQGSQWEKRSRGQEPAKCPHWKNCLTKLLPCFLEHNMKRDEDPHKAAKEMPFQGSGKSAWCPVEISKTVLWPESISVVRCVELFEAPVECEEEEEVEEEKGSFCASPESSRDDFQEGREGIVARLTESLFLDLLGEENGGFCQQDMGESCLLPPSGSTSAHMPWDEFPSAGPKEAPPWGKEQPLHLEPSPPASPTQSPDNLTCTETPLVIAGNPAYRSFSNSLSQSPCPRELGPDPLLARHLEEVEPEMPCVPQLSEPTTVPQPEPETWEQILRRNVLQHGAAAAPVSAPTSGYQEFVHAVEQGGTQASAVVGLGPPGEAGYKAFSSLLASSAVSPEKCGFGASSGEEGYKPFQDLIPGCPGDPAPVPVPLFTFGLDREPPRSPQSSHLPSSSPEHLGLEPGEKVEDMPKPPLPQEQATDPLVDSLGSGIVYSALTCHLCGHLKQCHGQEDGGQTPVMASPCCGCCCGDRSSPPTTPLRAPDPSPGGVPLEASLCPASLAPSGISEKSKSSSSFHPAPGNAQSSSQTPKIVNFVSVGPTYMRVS

T2: human IL-4Rα (interleukin 4 receptor subunit alpha) (human, UniProt P24394 26-232, limits assumed)
T2 sequence (looked up): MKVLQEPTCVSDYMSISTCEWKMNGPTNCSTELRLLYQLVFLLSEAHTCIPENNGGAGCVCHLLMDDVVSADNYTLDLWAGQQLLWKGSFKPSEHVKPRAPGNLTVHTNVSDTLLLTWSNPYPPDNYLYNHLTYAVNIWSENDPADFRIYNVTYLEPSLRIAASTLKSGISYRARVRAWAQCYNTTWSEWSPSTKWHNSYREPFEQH

B1: Reference Antibody (antibody, human IgG4 S228P, kappa, V domains shown)
VH: EVQLVESGGGLEQPGGSLRLSCAGSGFTFRDYAMTWVRQAPGKGLEWVSSISGSGGNTYYADSVKGRFTISRDNSKNTLYLQMNSLRAEDTAVYYCAKDRLSITIRPRYYGLDVWGQGTTVTVSS
VL: DIVMTQSPLSLPVTPGEPASISCRSSQSLLYSIGYNYLDWYLQKSGQSPQLLIYLGSNRASGVPDRFSGSGSGTDFTLKISRVEAEDVGFYYCMQALQTPYTFGQGTKLEIKR
B2: AB-13b (antibody, human IgG4 S228P, kappa)
heavy: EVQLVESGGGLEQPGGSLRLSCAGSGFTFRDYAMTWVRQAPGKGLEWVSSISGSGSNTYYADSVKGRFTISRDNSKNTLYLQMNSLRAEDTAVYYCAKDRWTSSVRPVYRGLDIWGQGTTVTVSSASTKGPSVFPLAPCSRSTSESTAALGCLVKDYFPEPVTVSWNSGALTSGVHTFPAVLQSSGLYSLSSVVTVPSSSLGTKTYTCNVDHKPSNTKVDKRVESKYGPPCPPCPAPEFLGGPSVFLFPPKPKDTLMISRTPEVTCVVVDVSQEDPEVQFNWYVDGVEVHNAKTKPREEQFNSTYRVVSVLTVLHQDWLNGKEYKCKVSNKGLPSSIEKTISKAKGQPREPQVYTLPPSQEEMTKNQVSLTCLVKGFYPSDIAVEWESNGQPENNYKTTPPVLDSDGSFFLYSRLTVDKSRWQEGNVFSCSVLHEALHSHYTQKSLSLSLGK
light: DIVMTQSPLSLPVTPGEPASISCRSSQSLLYSHGYNYLDWYLQKSGQSPQLLIYLASNRASGVPDRFSGSGSGTDFTLKISRVEAEDVGFYYCMQSLYTPYTFGQGTKLEIKRTVAAPSVFIFPPSDEQLKSGTASVVCLLNNFYPREAKVQWKVDNALQSGNSQESVTEQDSKDSTYSLSSTLTLSKADYEKHKVYACEVTHQGLSSPVTKSFNRGEC
notes: hIgG4 LS variant, kappa
B3: AB-13a (antibody, human IgG4 S228P, kappa)
heavy: EVQLVESGGGLEQPGGSLRLSCAGSGFTFRDYAMTWVRQAPGKGLEWVSSISGSGSNTYYADSVKGRFTISRDNSKNTLYLQMNSLRAEDTAVYYCAKDRWTSSVRPVYRGLDIWGQGTTVTVSSASTKGPSVFPLAPCSRSTSESTAALGCLVKDYFPEPVTVSWNSGALTSGVHTFPAVLQSSGLYSLSSVVTVPSSSLGTKTYTCNVDHKPSNTKVDKRVESKYGPPCPPCPAPEFLGGPSVFLFPPKPKDTLYITREPEVTCVVVDVSQEDPEVQFNWYVDGVEVHNAKTKPREEQFNSTYRVVSVLTVLHQDWLNGKEYKCKVSNKGLPSSIEKTISKAKGQPREPQVYTLPPSQEEMTKNQVSLTCLVKGFYPSDIAVEWESNGQPENNYKTTPPVLDSDGSFFLYSRLTVDKSRWQEGNVFSCSVMHEALHNHYTQKSLSLSLGK
light: B2 light
notes: hIgG4 YTE variant, kappa
B4: AB-13d (antibody, human IgG1, kappa)
heavy: not shown
light: B2 light
notes: hIgG1, kappa
B5: AB-5c (antibody, human IgG4 S228P, kappa)
heavy: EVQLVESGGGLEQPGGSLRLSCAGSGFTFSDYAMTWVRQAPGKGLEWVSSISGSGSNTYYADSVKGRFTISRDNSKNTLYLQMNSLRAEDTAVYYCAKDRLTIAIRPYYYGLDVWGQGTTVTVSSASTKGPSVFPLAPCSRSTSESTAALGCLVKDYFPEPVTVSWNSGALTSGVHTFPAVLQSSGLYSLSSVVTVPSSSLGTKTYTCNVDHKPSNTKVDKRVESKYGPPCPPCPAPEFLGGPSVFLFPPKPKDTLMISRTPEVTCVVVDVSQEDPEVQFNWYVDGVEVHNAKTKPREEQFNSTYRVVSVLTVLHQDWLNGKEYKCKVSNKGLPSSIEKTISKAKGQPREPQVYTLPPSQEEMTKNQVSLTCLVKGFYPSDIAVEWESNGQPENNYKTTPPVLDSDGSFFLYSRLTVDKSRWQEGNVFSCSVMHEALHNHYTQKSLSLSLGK
light: B2 light with L30D, H33I, S96A, Y98Q
notes: hIgG4 WT, kappa
B6: AB-6c (antibody, human IgG4 S228P, kappa)
heavy: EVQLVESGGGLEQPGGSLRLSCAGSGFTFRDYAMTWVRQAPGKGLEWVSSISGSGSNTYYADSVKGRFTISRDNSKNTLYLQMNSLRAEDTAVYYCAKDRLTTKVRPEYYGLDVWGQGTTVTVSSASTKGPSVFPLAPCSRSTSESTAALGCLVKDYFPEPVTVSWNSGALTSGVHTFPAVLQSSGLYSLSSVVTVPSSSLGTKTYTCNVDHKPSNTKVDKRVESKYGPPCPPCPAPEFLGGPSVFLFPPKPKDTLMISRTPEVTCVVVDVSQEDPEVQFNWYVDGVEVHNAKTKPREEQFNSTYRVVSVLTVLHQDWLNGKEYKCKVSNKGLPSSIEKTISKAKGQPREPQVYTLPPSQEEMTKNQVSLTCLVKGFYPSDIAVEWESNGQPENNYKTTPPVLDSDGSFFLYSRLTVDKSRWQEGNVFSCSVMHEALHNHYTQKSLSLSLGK
light: B2 light with H33I, Y98Q
notes: hIgG4 WT, kappa
B7: AB-2c (antibody, human IgG4 S228P, kappa, V domains shown)
VH: B1 VH with G56S, K98R, S102T, I103A, T104A, I105V, R108Y
VL: B1 VL with L30D, I33S, G56A, A96S
notes: hIgG4 WT, kappa
B8: AB-4c (antibody, human IgG4 S228P, kappa)
heavy: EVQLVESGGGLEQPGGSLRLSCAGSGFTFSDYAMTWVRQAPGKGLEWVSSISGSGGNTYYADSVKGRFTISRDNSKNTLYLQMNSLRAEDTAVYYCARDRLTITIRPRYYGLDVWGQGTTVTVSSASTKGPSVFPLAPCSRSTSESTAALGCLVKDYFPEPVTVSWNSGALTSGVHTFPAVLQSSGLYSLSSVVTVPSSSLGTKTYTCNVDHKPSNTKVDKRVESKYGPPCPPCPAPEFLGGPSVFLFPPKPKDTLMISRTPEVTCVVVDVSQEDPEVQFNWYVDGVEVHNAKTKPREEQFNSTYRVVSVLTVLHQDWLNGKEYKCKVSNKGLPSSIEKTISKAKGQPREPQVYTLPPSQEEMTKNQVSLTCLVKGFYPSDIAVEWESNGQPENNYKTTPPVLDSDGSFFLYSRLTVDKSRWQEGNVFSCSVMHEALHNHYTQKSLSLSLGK
light: B2 light with H33T, S96A, Y98S
notes: hIgG4 WT, kappa

What follows are binders tested against T1, IL-4Rα on human primary cells (primary …) (assay: cell-based or functional assay).

B1 and B2 are within 1.5-fold of each other in “Inhibition of CD23 Expression by Primary B cells (IC50), Donor 13” value: 22 nM for the first, 30.1 nM for the second.

B3 was tested, and the “Inhibition of CD23 Expression by Primary B cells (IC50), Donor 13” value was 27.5 nM.

Compared with B1, B2 is 2.9-fold higher in “Inhibition of CD23 Expression by Primary B cells (IC50), Donor 52” value: 11.9 nM for the first, 34.4 nM for the second.

With B3 the “Inhibition of CD23 Expression by Primary B cells (IC50), Donor 52” value was 17.8 nM.

Compared with B1, B2 is 2-fold higher in “Inhibition of CD23 Expression by Primary B cells (IC50), Donor 53” value: 18 nM for the first, 35.9 nM for the second.

B3 was tested, and the “Inhibition of CD23 Expression by Primary B cells (IC50), Donor 53” value was 40.6 nM.

Going from B1 to B2, the “Inhibition of CD23 Expression by Primary B cells (IC50), Donor 56” value rises from 29.8 nM to 54.2 nM (1.8-fold).

For B3, the “Inhibition of CD23 Expression by Primary B cells (IC50), Donor 56” value was 54.4 nM.

Each binder was assayed against T2, human IL-4Rα (interleukin 4 receptor …) (assay: SPR, Biacore 8K+ multi-cycle capture kinetics; antibody captured on goat anti-human polyclonal surface, human IL-4Rα as analyte, 25 C, 1:1 model).

B2 and B3 are within 1.5-fold of each other in Kd: 0.0249 nM for the first, 0.0333 nM for the second.

B4 gave a Kd of 0.0326 nM.

B2 and B3 are within 1.5-fold of each other in koff: 2.19e-05 s⁻¹ for the first, 2.59e-05 s⁻¹ for the second.

Work on B4 yielded a koff of 2.57e-05 s⁻¹.

B2 and B3 are within 1.5-fold of each other in kon: 881000 M⁻¹ s⁻¹ for the first, 778000 M⁻¹ s⁻¹ for the second.

Work on B4 yielded a kon of 789000 M⁻¹ s⁻¹.

What follows are binders tested against T2, human IL-4Rα (interleukin 4 receptor …) (assay: SPR, Carterra LSA non-regenerative capture kinetics; antibody captured on goat anti-human polyclonal lawn, human IL-4Rα as analyte, 25 C, 1:1 model; average ± SD of technical replicates).

Compared with B5, B6 is lower in Kd: 2.37 nM for the first, at most 0.1 nM for the second.

Compared with B7, B8 is 91-fold lower in Kd: 50.7 nM for the first, 0.56 nM for the second.
